Experimental findings from patent publication US8415306B2, “Insulin-like growth factor 1 receptor binding peptides” (Janssen Biotech, Inc., priority 2010, dated 2013) are described below.

The target of one assay is insulin receptor (Homo sapiens, UniProt P06213). As to the kind of experiment: phage lysate binding to insulin receptor (cross-reactivity). The method, then: Total of 384 individual phage lysates from the panning were tested for binding specificity towards sIGF1R in a solid phase phage ELISA. Briefly, 100 μl/well of 5 μg/ml sIGF1R (R&D Systems, Minneapolis, Minn.) was bound to Black Maxisorp Plates (Nunc, Rochester, N.Y.), 25 μl of phage lysate added, and the reaction was detected using anti-M13-HRP antibody (EMD Biosciences, Gibbstown, N.J.) and POD substrate (Roche, Indianapolis, Ind.), and the signal detected using a TEKAN plate reader. […] Positive lysates were defined as clones with a sIGF1R specific signal that was three fold above the background of the negative control. A total of 13 clones with unique peptide sequences were obtained with confirmed binding to the sIGF1R (Table 1). From these 13 clones, 3 (clones 5, 13 and 16) cross-reacted with the insulin receptor.

For assay [1], the system named is rat brain microvascular endothelial cell model. As to the kind of experiment: in vitro BBB model, transcytosis of peptide-AP fusions. The format is cell-based. The settings on record: 25 μg peptide-AP fusion in top chamber, detected in bottom chamber at 15 and 30 minute by ELISA. The method, then: Select sIGF1R binding peptides were further characterized in the in vitro blood-brain barrier model, rat brain microvascular endothelial cell model.
Rat Brain capillary endothelial cells were prepared as described (Perriere et al., J. Neurochem. 93:279-289, 2005). Briefly, brains from 6-8 week old male Sprague Dawley rats were rolled on 3 MM chromatography paper to remove the meniges, cut sagitally, and the white matter dissected leaving the cortices, which were then minced thoroughly. The minced cortices were transferred to a 50 ml polypropylene conical tube with 20 ml DMEM supplemented with 39 units/ml DNase I (Worthington, Lakewood, N.J.) and 0.7 mg/ml Collagenase type 2 (Worthington, Lakewood, N.J.) at final concentration and incubated at 37° C. with gentle mixing for 1.25 hrs. After a brief centrifugation the resultant pellet was resuspended in 20 ml 20% BSA (Sigma, St. Louis, Mo.) in DMEM, centrifuged and the microvessel enriched pellet was isolated a digested a second time with 20 ml DMEM supplemented with 39 units/ml DNase 1 and 1 mg/ml Collagenase/Dispase (Roche, Indianapolis, Ind.) at 37° C. for 1 hr. The digestion was briefly centrifuged and the resulting cell pellet was resuspended in 2 ml DMEM and subsequently layered onto the top of a 33% continuous Percoll gradient, centrifuged, and the enriched microvessel fraction was removed and briefly centrifuged a second time. The cell pellet was resuspended in 10 ml complete rat brain microvascular endothelial cell growth media (DMEM, 20% Plasma Derived Serum (PDS), 100 μg/ml Heparin, 2 mM L-Glutamine, 100 U/ml penicillin, 100 μg/ml streptomycin, 0.25 μg/ml amphotericin) and plated onto a 10 cm tissue culture dish for 4 hrs at 37° C., 5% CO2. After 4 hrs cells that remained unattached were pipetted off and counted in a hemacytometer using Trypan Blue. The cells were plated into the top chamber of the Transwells (0.4 μm pore size, diameter 1.12 cm, Corning, Acton, Mass.) treated with 400 μg/ml collagen type IV (Sigma, St. Louis, Mo.) and 100 μg/ml fibronectin (Sigma, St. Louis, Mo.) at a density of 6×10^5 cells/ml, 500 μl per well. 1 ml of growth media was placed into the bottom chamber. Both chambers were supplemented with 4 μg/ml puromycin (Clontech, Mountain View, Calif.) and the plates were incubated at 37° C., 5% CO2 overnight. The next day the media was changed with fresh complete culture media with 4 μg/ml puromycin and the cells were placed back into the incubator overnight. The next day the media was changed with complete culture media and again two days after. Cultures were monitored by eye till they reached 100% confluence, ˜6-7 days after seeding. The developed in vitro BBB model had high transendothelial electrical resistance (>100 ohms-cm^2), measured using Millicell-ERS (Millipore, Billercia, Mass.) and very low Na-Fluorescein permeability (about 1-5×10^−6 cm/s).
25 μg of purified peptide-AP fusions were added to the top chamber of the in vitro BBB model and transcytosed peptide-AP fusions were detected at 15 and 30 minute timepoints in the bottom chamber using ELISA. Briefly, 75 μl of each sample was transferred to plates coated with 5 μg/ml mouse monoclonal anti-bacterial AP antibody (Sigma, St. Louis, Mo.). The plate was incubated for 1 hr, washed, the signal was developed with Attophos Substrate (Roche, Indianapolis, Ind.) according to manufacturer's recommendation, and read using a Molecular Devices M5 plate reader with 440 nm excitation and 550 nm emission.

Assay [2] concerns the target T1, sIGF1R (Homo sapiens, UniProt P08069).
T1 construct: hexahistidine (C); purchased R&D Systems
The assay can be described thus: ELISA relative binding affinity of PG-peptide fusions for sIGF1R. The settings on record: for EC50: PG-peptide fusion, ELISA on 2 μg/ml coated sIGF1R, one site binding equation. From the text: The identified IFG1R binding peptides were cloned in-frame to the C-terminus of the protein G IgG domain (PG) in a modified pET17b vector (EMD Chemicals, Gibbstown, N.J.) having a ligation independent cloning site (LIC) to generate PG-peptide fusions. The IgG binding domain of protein G is stable and thus enabled easy purification of the fusion protein from bacterial lysates. The amino acid sequence of the protein G IgG domain used is shown in SEQ ID NO: 31. The PG-peptide fusions were expressed in bacteria upon 1 mM IPTG induction and purified using IgG Sepharose beads (GE Healthcare Life Sciences, Piscataway, N.J.) from the bacterial lysates cleared by centrifugation at 16,000 g, 4° C. for 20 min.
(§1) Relative binding affinities of the PG-peptide fusions for sIGF1R were measured using ELISA. The Kds were determined using GraphPad Prism 4 software with a one site binding equation. 100 μl of 2 μg/ml sIGF1R(R&D Systems, Minneapolis, Minn.) in Dulbecco's Phosphate Buffer Saline (DPBS (−/−)) was coated onto a 96 well Black Maxisorp plates (Nunc, Rochester, N.Y.) overnight at 4° C. The plates were washed with TBST and the wells blocked with 200 μl/well Starting Block T20 (TBS) (Pierce, Rockford, Ill.) for 1 hr, room temperature with 300 rpm shaking. 75 μl/well of purified, serially diluted PG-peptide fusions, starting concentration 40 μM, was added into the wells and incubated for 1 h, room temperature with 300 rpm mixing; the volume was brought up to 100 μl with Starting Block T20. The plates were washed 3× with TBST and then probed with 100 μl/well Peroxidase labeled-Rabbit antibody (1:5000) (Rockland, Gilbertsville, Pa.), washed, and the signal was detected using 100 μl/well POD substrate (Roche, Indianapolis, Ind.). Chemiluminescence was detected using a Molecular Devices M5 plate reader.

In assay [3] the target is T1, sIGF1R. As to the kind of experiment: competition ELISA of PG-peptide fusions with IGF-1 on sIGF1R. The format is binding. Conditions: PG-peptide fusion, IGF-1 400 nM final. The method, then:
as §1
For competition assays, insulin-like growth factor 1 (IGF-1) (R&D Systems, Minneapolis, Minn.) was added to the Starting Block T20 used to bring the volume up to 100 μl at a concentration of 400 nM final.
(An ELISA detects its analyte on a solid surface through an enzyme-linked reagent.)

The term EC50 denotes the concentration needed to bring the measured effect to its halfway point. For “16 (AGCPSPMPPVDPGFYSAIVQLCRE; IGF1R binding peptide from pIX library) [Clone 16]”, the “cross-reaction with the insulin receptor” value with insulin receptor is reported as “cross-reacted”. In assay [1], the Transcytosis result was “yes”. Also, in the assay with sIGF1R [2], the midpoint of the response, the EC50, lay at 8200 nM. For the same substance, the “Competed by IGF-1” value with sIGF1R [3] is given as “yes”.

For “11 (HTCFYPTLMPPELCFD; IGF1R binding peptide from pIX library) [Clone 11]”, in assay [1], the Transcytosis result is recorded as “no”. The substance also gave an EC50 with sIGF1R [2] of 1200 nM. Further, the “Competed by IGF-1” value with sIGF1R [3] is reported as “yes”.

With “13 (WHCTPLTQIADPGSIIHILECTV; IGF1R binding peptide from pIX library) [Clone 13]”, the “cross-reaction with the insulin receptor” value in the assay with insulin receptor is on record as “cross-reacted”. For the same substance, the Transcytosis entry in assay [1] is given as “no”. The substance also registered an EC50 with sIGF1R [2] greater than 50000 nM. For the same substance, in the assay with sIGF1R [3], the “Competed by IGF-1” value is reported as “yes”.

As to “17 (DDIDEFLHQLHNLVNNVH; IGF1R binding peptide from pIX library) [Clone 17]”, the Transcytosis entry in assay [1] was “no”. Also, the “binding curve shape (binding profile)” value with sIGF1R [2] (PG-peptide fusion on sIGF1R) is on record as “bellshaped”. Besides, in the assay with sIGF1R [3], the “Competed by IGF-1” value is listed as “yes”.

In the assay with sIGF1R [2], “7 (PFCYSGGPLPYPCTY; IGF1R binding peptide from pIX library) [Clone 7]” showed an EC50 of 1800 nM. This counts as single-digit micromolar.

“10 (LSCYDPTLRTLYCHV; IGF1R binding peptide from pIX library) [Clone 10]” showed an EC50 with sIGF1R [2] of 4300 nM.

For the substance “8 (PVCPSFCYDQYVCPT; IGF1R binding peptide from pIX library) [Clone 8]”, in assay [1], the Transcytosis result is given as “yes”. Further, the EC50 in the assay with sIGF1R [2] turned out to be 1600 nM.

Take “6 (AECEWPWLTLELCQS; IGF1R binding peptide from pIX library) [Clone 6]”: in assay [1], the Transcytosis entry was “yes”. The same substance came in with an EC50 with sIGF1R [2] of 1000 nM.

“15 (MTCAWHTLHTDPGLTPQLTLPCIY; IGF1R binding peptide from pIX library) [Clone 15]”: a half-maximal effect with sIGF1R [2] (EC50) was put at 2600 nM.

For “12 (SNCPPLDMRLTELCVM; IGF1R binding peptide from pIX library) [Clone 12]”, the Transcytosis result in assay [1] is listed as “yes”. Moreover, it took 1800 nM to reach a half-maximal effect with sIGF1R [2] (EC50).

In the case of “9 (FTCAVYSLSELDCRD; IGF1R binding peptide from pIX library) [Clone 9]”, in assay [1], the Transcytosis result was “no”. In addition, the response in the assay with sIGF1R [2] was half-maximal at 3500 nM (EC50).

Consider “5 (TGCDFPELCRGCHP; IGF1R binding peptide from pIX library) [Clone 5]”, for which, in the assay with insulin receptor, the “cross-reaction with the insulin receptor” value was “cross-reacted”. Also, the Transcytosis result in assay [1] is given as “yes”. The EC50 in the assay with sIGF1R [2] was 750 nM.

As to “14 (VECDTPSITFSPGLEALFWNTCSP; IGF1R binding peptide from pIX library) [Clone 14]”, in assay [1], the Transcytosis entry is given as “no”. Moreover, the EC50 in the assay with sIGF1R [2] came to 850 nM. Also, the “Competed by IGF-1” value in the assay with sIGF1R [3] was “yes”.
